The binders below were run against T1, human CD28 (human, UniProt P10747 19-220) (assay: flow cytometry on Jurkat cells, reference bsAb).
T1 construct: whole, on cells; also called huCD28

binding result | Binder
binds | 1a28/AC84/N (bispecific antibody, human IgG1, kappa, L234A L235A, LALAPA-mutated huIgG1, 1+1 crossMAb/knobs-into-hole; also called benchmark CEA×CD28 bsAb) heavy 1: QSVLTQPPSVSAAPGQKVTISCSGSSSNIGIGLVSWYQQLPGTAPKLLIYNVNTRPSGIPDRFSGSKSGTSATLGITGLQTGDEADYYCGTWDFSYRVDFGGGTKLTVLSSASTKGPSVFPLAPSSKSTSGGTAALGCLVKDYFPEPVTVSWNSGALTSGVHTFPAVLQSSGLYSLSSVVTVPSSSLGTQTYICNVNHKPSNTKVDKKVEPKSCDKTHTCPPCPAPEAAGGPSVFLFPPKPKDTLMISRTPEVTCVVVDVSHEDPEVKFNWYVDGVEVHNAKTKPREEQYNSTYRVVSVLTVLHQDWLNGKEYKCKVSNKALAAPIEKTISKAKGQPREPQVYTLPPCRDELTKNQVSLWCLVKGFYPSDIAVEWQSNGQTENNYKTTPPVLDSDGSFFLYSKLTVDKSRWQQGNVFSCSVMHEALHNHYTQKSLSLSPG heavy 2: QVQLQESGPGLVKPSETLSLTCTVSGGSISSYYWSWIRQPPGKGLEWIGYIYYSGITHYNPSLKSRVTISVDTSKIQFSLKLSSVTAADTAVYYCARWGVRRDYYYYGMDVWGQGTTVTVSSASTKGPSVFPLAPSSKSTSGGTAALGCLVEDYFPEPVTVTWNSGALSSGVHTFPAVLQSSGLYSLSSVVTVPSSSLGTQTYICNVNHKPSNTKVDEKVEPKSCDKTHTCPPCPAPEAAGGPSVFLFPPKPKDTLMISRTPEVTCVVVDVSHEDPEVKFNWYVDGVEVHNAKTKPREEQYNSTYRVVSVLTVLHQDWLNGKEYKCKVSNKALAAPIEKTISKAKGQPREPQVCTLPPSRDELTKNQVSLSCAVKGFYPSDIAVEWESNGQPENNYKTTPPVLDSDGSFFLVSKLTVDKSRWQQGNVFSCSVMHEALHNHYTQKSLSLSPG light 1: not shown light 2: not shown

These binders were tested against T1, human CD28 (assay: flow cytometry on Jurkat cells).

Binder | binding result
AI5O30/N (bispecific antibody, human IgG1, kappa, lambda, L234A L235A, κλ-body, huIgG1-LALAPA; also called AI5 (AI_1A9) kappa / O30 (O1b6_1D1) lambda) heavy: not shown light 1: DIVMTQTPLSLSVTPGQPASISCKSSGDLLTFEGKTYLYWYLQKPGQPPQLLIYEVSNRFSGVPDRFSGSGSGTDFTLKISRVEAEDVGVYYCMQAHSTRFAFTFGQGTKVEIKRTVAAPSVFIFPPSDEQLKSGTASVVCLLNNFYPREAKVQWKVDNALQSGNSQESVTEQDSKDSTYSLSSTLTLSKADYEKHKVYACEVTHQGLSSPVTKSFNRGEC light 2: not shown | binds
AI5O35/N (bispecific antibody, human IgG1, kappa, lambda, L234A L235A, κλ-body, huIgG1-LALAPA; also called AI5 (AI_1A9) kappa / O35 (Ob8_A10) lambda) heavy: not shown light 1: DIVMTQTPLSLSVTPGQPASISCKSSGDLLTFEGKTYLYWYLQKPGQPPQLLIYEVSNRFSGVPDRFSGSGSGTDFTLKISRVEAEDVGVYYCMQAHSTRFAFTFGQGTKVEIKRTVAAPSVFIFPPSDEQLKSGTASVVCLLNNFYPREAKVQWKVDNALQSGNSQESVTEQDSKDSTYSLSSTLTLSKADYEKHKVYACEVTHQGLSSPVTKSFNRGEC light 2: QPVLTQPVSLSASPGASVSLTCTLRSDIRVRDYRIFWYQQKPGSPPQYLLRYKTDSDKQQGSGVPSRFSGSKDASANAGILLISGLQSEDEADYYCMIWHRTTGTSLVFGGGTKLTVLGQPKAAPSVTLFPPSSEELQANKATLVCLISDFYPGAVTVAWKADSSPVKAGVETTTPSKQSNNKYAASSYLSLTPEQWKSHRSYSCQVTHEGSTVEKTVAPTECS | binds
AI5O41/N (bispecific antibody, human IgG1, kappa, lambda, L234A L235A, κλ-body, huIgG1-LALAPA; also called AI5 (AI_1A9) kappa / O41 (Ob9_1A11) lambda) heavy: not shown light 1: DIVMTQTPLSLSVTPGQPASISCKSSGDLLTFEGKTYLYWYLQKPGQPPQLLIYEVSNRFSGVPDRFSGSGSGTDFTLKISRVEAEDVGVYYCMQAHSTRFAFTFGQGTKVEIKRTVAAPSVFIFPPSDEQLKSGTASVVCLLNNFYPREAKVQWKVDNALQSGNSQESVTEQDSKDSTYSLSSTLTLSKADYEKHKVYACEVTHQGLSSPVTKSFNRGEC light 2: SYVLTQPPSVSVAPGKTARITCGGNKIGHRAVHWYQQKPGQAPVLVIYYTYERPSGIPERFSGSNSGNTATLTISRVEAGDEADYYCQVWDWYSEGGVVFGGGTKLTVLGQPKAAPSVTLFPPSSEELQANKATLVCLISDFYPGAVTVAWKADSSPVKAGVETTTPSKQSNNKYAASSYLSLTPEQWKSHRSYSCQVTHEGSTVEKTVAPTECS | binds
AI10O41/N (bispecific antibody, human IgG1, kappa, lambda, L234A L235A, κλ-body, huIgG1-LALAPA; also called AI10 (AI_1B6) kappa / O41 (Ob9_1A11) lambda) heavy: not shown light 1: DIVMTQTPLSLSVTPGQPASISCKSSGDLLEFAGKTYLYWYLQKPGQPPQLLIYEVSNRFSGVPDRFSGSGSGTDFTLKISRVEAEDVGVYYCMQAHGSKIGFTFGQGTKVEIKRTVAAPSVFIFPPSDEQLKSGTASVVCLLNNFYPREAKVQWKVDNALQSGNSQESVTEQDSKDSTYSLSSTLTLSKADYEKHKVYACEVTHQGLSSPVTKSFNRGEC light 2: SYVLTQPPSVSVAPGKTARITCGGNKIGHRAVHWYQQKPGQAPVLVIYYTYERPSGIPERFSGSNSGNTATLTISRVEAGDEADYYCQVWDWYSEGGVVFGGGTKLTVLGQPKAAPSVTLFPPSSEELQANKATLVCLISDFYPGAVTVAWKADSSPVKAGVETTTPSKQSNNKYAASSYLSLTPEQWKSHRSYSCQVTHEGSTVEKTVAPTECS | binds
AI10O30/N (bispecific antibody, human IgG1, kappa, lambda, L234A L235A, κλ-body, huIgG1-LALAPA; also called AI10 (AI_1B6) kappa / O30 (O1b6_1D1) lambda) heavy: not shown light 1: DIVMTQTPLSLSVTPGQPASISCKSSGDLLEFAGKTYLYWYLQKPGQPPQLLIYEVSNRFSGVPDRFSGSGSGTDFTLKISRVEAEDVGVYYCMQAHGSKIGFTFGQGTKVEIKRTVAAPSVFIFPPSDEQLKSGTASVVCLLNNFYPREAKVQWKVDNALQSGNSQESVTEQDSKDSTYSLSSTLTLSKADYEKHKVYACEVTHQGLSSPVTKSFNRGEC light 2: not shown | binds

Continued, values first:

binding result | Binder
binds | AI10O35/N (bispecific antibody, human IgG1, kappa, lambda, L234A L235A, κλ-body, huIgG1-LALAPA; also called AI10 (AI_1B6) kappa / O35 (Ob8_A10) lambda) heavy: not shown light 1: DIVMTQTPLSLSVTPGQPASISCKSSGDLLEFAGKTYLYWYLQKPGQPPQLLIYEVSNRFSGVPDRFSGSGSGTDFTLKISRVEAEDVGVYYCMQAHGSKIGFTFGQGTKVEIKRTVAAPSVFIFPPSDEQLKSGTASVVCLLNNFYPREAKVQWKVDNALQSGNSQESVTEQDSKDSTYSLSSTLTLSKADYEKHKVYACEVTHQGLSSPVTKSFNRGEC light 2: QPVLTQPVSLSASPGASVSLTCTLRSDIRVRDYRIFWYQQKPGSPPQYLLRYKTDSDKQQGSGVPSRFSGSKDASANAGILLISGLQSEDEADYYCMIWHRTTGTSLVFGGGTKLTVLGQPKAAPSVTLFPPSSEELQANKATLVCLISDFYPGAVTVAWKADSSPVKAGVETTTPSKQSNNKYAASSYLSLTPEQWKSHRSYSCQVTHEGSTVEKTVAPTECS
binds | AI3O35/N (bispecific antibody, human IgG1, kappa, lambda, L234A L235A, κλ-body, IgG1 LALAPA; also called AI3 (AI_1H5) kappa / O35 (Ob8_A10) lambda) heavy: not shown light 1: not shown light 2: QPVLTQPVSLSASPGASVSLTCTLRSDIRVRDYRIFWYQQKPGSPPQYLLRYKTDSDKQQGSGVPSRFSGSKDASANAGILLISGLQSEDEADYYCMIWHRTTGTSLVFGGGTKLTVLGQPKAAPSVTLFPPSSEELQANKATLVCLISDFYPGAVTVAWKADSSPVKAGVETTTPSKQSNNKYAASSYLSLTPEQWKSHRSYSCQVTHEGSTVEKTVAPTECS
binds | AI3O41/N (bispecific antibody, human IgG1, kappa, lambda, L234A L235A, κλ-body, IgG1 LALAPA; also called AI3 (AI_1H5) kappa / O41 (Ob9_1A11) lambda) heavy: not shown light 1: not shown light 2: SYVLTQPPSVSVAPGKTARITCGGNKIGHRAVHWYQQKPGQAPVLVIYYTYERPSGIPERFSGSNSGNTATLTISRVEAGDEADYYCQVWDWYSEGGVVFGGGTKLTVLGQPKAAPSVTLFPPSSEELQANKATLVCLISDFYPGAVTVAWKADSSPVKAGVETTTPSKQSNNKYAASSYLSLTPEQWKSHRSYSCQVTHEGSTVEKTVAPTECS

What follows are binders tested against T1, human CD28 (assay: worded affinity grade in the in vivo example; no assay named there).

binding result | Binder
binds | AI3AC84/N (bispecific antibody, human IgG1, kappa, lambda, L234A L235A, κλ-body, IgG1 LALAPA; also called AI3 (AI_1H5) kappa / AC84 (AC1g6_1F1) lambda) heavy: not shown light 1: not shown light 2: QSVLTQPPSVSAAPGQKVTISCSGSSSNIGIGLVSWYQQLPGTAPKLLIYNVNTRPSGIPDRFSGSKSGTSATLGITGLQTGDEADYYCGTWDFSYRVDFGGGTKLTVLGQPKAAPSVTLFPPSSEELQANKATLVCLISDFYPGAVTVAWKADSSPVKAGVETTTPSKQSNNKYAASSYLSLTPEQWKSHRSYSCQVTHEGSTVEKTVAPTECS
binds | AI5AC84/N (bispecific antibody, human IgG1, kappa, lambda, L234A L235A, κλ-body, IgG1 LALAPA; also called AI5 (AI_1A9) kappa / AC84 (AC1g6_1F1) lambda) heavy: not shown light 1: DIVMTQTPLSLSVTPGQPASISCKSSGDLLTFEGKTYLYWYLQKPGQPPQLLIYEVSNRFSGVPDRFSGSGSGTDFTLKISRVEAEDVGVYYCMQAHSTRFAFTFGQGTKVEIKRTVAAPSVFIFPPSDEQLKSGTASVVCLLNNFYPREAKVQWKVDNALQSGNSQESVTEQDSKDSTYSLSSTLTLSKADYEKHKVYACEVTHQGLSSPVTKSFNRGEC light 2: QSVLTQPPSVSAAPGQKVTISCSGSSSNIGIGLVSWYQQLPGTAPKLLIYNVNTRPSGIPDRFSGSKSGTSATLGITGLQTGDEADYYCGTWDFSYRVDFGGGTKLTVLGQPKAAPSVTLFPPSSEELQANKATLVCLISDFYPGAVTVAWKADSSPVKAGVETTTPSKQSNNKYAASSYLSLTPEQWKSHRSYSCQVTHEGSTVEKTVAPTECS
binds | AI10AC84/N (bispecific antibody, human IgG1, kappa, lambda, L234A L235A, κλ-body, IgG1 LALAPA; also called AI10 (AI_1B6) kappa / AC84 (AC1g6_1F1) lambda) heavy: not shown light 1: DIVMTQTPLSLSVTPGQPASISCKSSGDLLEFAGKTYLYWYLQKPGQPPQLLIYEVSNRFSGVPDRFSGSGSGTDFTLKISRVEAEDVGVYYCMQAHGSKIGFTFGQGTKVEIKRTVAAPSVFIFPPSDEQLKSGTASVVCLLNNFYPREAKVQWKVDNALQSGNSQESVTEQDSKDSTYSLSSTLTLSKADYEKHKVYACEVTHQGLSSPVTKSFNRGEC light 2: QSVLTQPPSVSAAPGQKVTISCSGSSSNIGIGLVSWYQQLPGTAPKLLIYNVNTRPSGIPDRFSGSKSGTSATLGITGLQTGDEADYYCGTWDFSYRVDFGGGTKLTVLGQPKAAPSVTLFPPSSEELQANKATLVCLISDFYPGAVTVAWKADSSPVKAGVETTTPSKQSNNKYAASSYLSLTPEQWKSHRSYSCQVTHEGSTVEKTVAPTECS

Reference: patent US20240002544A1 (NOVIMMUNE, published 2024)
